Measured values published in the domain aggregation screens of Martell et al. (2025).

Assay: soluble fraction after stress (log2 fold change); higher = more stays soluble; pooled small domains, quantitative proteomics
Conditions: stress: 50 degC
Procedure, shortened: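 Pooled custom libraries of small protein domains were measured in a high-throughput format, with quantitative proteomics as the read-out. Each library was stressed at 50°C. Aggregation propensity is given as the base-two logarithm of the fold change in how much of each protein stays soluble after the stress. Higher values mean a larger share of the protein remains in solution.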

| Sequence | soluble fraction (log2) |
| --- | --- |
| HMQKTIDWSQVDKEQYLSAMERSPVNDLEIKAILAKALTSDINNRELFMKGLDHSYYFEGYQLFKSE | -0.281 |
| HMQKTQVVEVAGKSYQLTKMDARTGSYVAFKVAGVLAPSGGKTAEMAAALMGMPRKDFDELQSLLLRTV | 0.141 |
| HMQKYSTIIGVIELRQSGIGYRTTKKRYNIGNSTVTLIMNRFHELGLSLEELKAMPPKKVEEAFYPPE | -2.43 |
| HMQLASILDDIPGIGKKRKENLLTHFGSFSKIQSADIDALAEVPGISRDLAETIHTYLKTHQ | 0.0967 |
| HMQLDLSDPSKNKLDSIVSLPIKSLKAVEANGEILFMSENGRFVLRGQLYDIWYKDTLDTSAQIQDAATRI | 0.109 |
| HMQLDLTSTLDHMYKQMRNDHPRALLMAVEKEMVLRALKETDGNQLRASDILGISRSTLRKRIEEFDINS | -1.09 |
| HMQLEPLITSVIPVNFAKAGEVATTIKGKEVGLVSDRGSITAESRTNVLIVKDIKKNVDDISAMVKRLD | 0.123 |
| HMQLGEEAGDELVAIVRSVINDNDKALADYLAGKSSALKFLLGQVMRQTKGRADHALVQSLLEAELEAL | -0.169 |
| HMQLHDTMKRVYEALDISEQKLAESLGLKLSTIINWQKNGISKIGINKLNQTFGLDMQWILTGQGEPFI | 0.116 |
| HMQLLDIGSAVRIIREPYFGRLGTVVELPPELMEIESGTHARVLKAKLDDGTVAVVPRANVEIIVE | -0.171 |
| HMQLNNTDELEKIILKILENNPKQVDQFLAGKQKLLGFFVGQAMRATSGKANPKTVNDLLEKFLSK | -0.0714 |
| HMQLPDLDEIRQMRKRLDLSQRELAALAGVSQSLIAKIEKGSIDPSYDNVRKIFNAFENILKKRALE | -0.255 |
| HMQLPIGDVKLSVEHLSSGTALQDISFEVHRGEIFGFLGLVGAGRSETAETIFGLREKTDGKISIDGTVL | -0.214 |
| HMQLPTNAAAILRYLSSGAVKGVGSATAVRIVEKFGEETLNILEQDPLRLAEIRGISRDKAKKIGEDFASQ | -0.201 |
| HMQLSMLPYGFARRHGVLLVEQDEQPTLIHRAGITATVIAEVQRVAGQIDAWRLVDDARFDQQLAEVYRD | -1.06 |
| HMQLTPAQHAILAYAIEHTGGKIEWFPDNIKGGARTKVLEGLFNKALITRDSTDWFVAAEGYDALGR | -0.549 |
| HMQLYSLEVLSKKKVDLIENNKNLINLYFNKENGEYSYRLIFKNRKELYQVKDTLDNSSDVVSIKLDL | -0.863 |
| HMQMGLNEAYRVLHVSPDAPWREVQSAYKERMAKSHPDKVSHLGEELQEKAKELTVEINKAYNTIKRYKK | 0.194 |
| HMQMKDRILRIMEHEGISPSKFAEEIGIQRSAMSHIISGRNNPSLDVLTKIMQRFTYVDTDWLLFGKGSMV | -0.737 |
| HMQMPDLTGKPRAEAVTTLAALGFTDVKFLDASAGDEPLDYVADQVVRTSPEAGAALASGQQITIYLAT | 0.101 |
| HMQMSDTSMIRDLVLQVLAENPQSIEDFKNGKDRAVGFLVGMVMKKSQGKANPQITNQMIVEELKK | -0.104 |
| HMQMSERENTILLTKRYIERGEYERAMNLLDSLLIKNALDEEALAMIDEIIALKAGASLQDFPRY | -0.684 |
| HMQMTTPQMVPLFTDLSVDDSASIIKDLERQAVPYQIKSDGAIIMVPKDKVTRLRMKLAESGLPK | 0.25 |
| HMQNDDLTKLDGIGPYIEQRLNDIGIYNYEQLSKLNTEDIQKITELIDFFPGRIERDNWVSQAQLLKI | -0.316 |
| HMQNDILIQADEIVGDYFDMDKEALKMNKQAVIADIEKRQATAQGDEASALHYAKQKVENEFEDDGSQKD | 0.185 |
| HMQNKFLDIVGEIEVKAVDYYLLKDTSGLVIKFPKNLVFANGLKIADNKIGLTVSLYGAWVHEET | -1.17 |
| HMQNKYIIKQGNSGELVEVLQELLNLKQDGVFGPQTKKAVIAFQQKHKLVADGIVGPMSWRKLNFNPEELF | -2.13 |
| HMQNLISSDEAKNIALQHANLTDNQVTFIKVSKDYDDGIHIYEVEFHYNNREYNYDINAINGTILSYEQ | -0.574 |
| HMQNNKITIYISGAVNRPGIVTIESDKRLYDAVELLGGTTKEADLNGVNLSVRLEDEQHYIIPKIGEA | -0.0996 |
| HMQNNWFYEENGQRKGPVSENEMVQFIKSSVISHGTSVWKQGFPDWLKVENTDLRVHLDNSAP | 0.136 |
